Drawing on patent US20210198377A1 (XDCEXPLORER SHANGHAI, published 2021), this text covers OD450nm and competition rate for nine molecules.

Substitutions are numbered along the chain they refer to.

Sequences and labels used below:
B1: 37H9C5G2 (antibody, V domains shown)
VH: QVQLQQSDAELVRPGASVKMSCKVSGYTFTDHTIHWMKQRPEQGLEWIGYIYPRDGSGTYNEKFKGKATLTADKSSSTAYMQLNSLTSEDSAVYFCARDGSSHYWYFDVWGTGTTVTVSS
VL: DIQMTQSPASLSASVGETVTITCRASEIIYNYLAWYQQKQGKSPQLLVYNAKTLAEGVPSRFSGSYSGTQFSLNINSLQSEDFGIYYCQHHHDTPLTFGAGTKLDLK
notes: Mouse hybridoma antibody purified from culture supernatant; also called TPBG antibody; lead antibody
B2: 28D4E6A9 (antibody, V domains shown)
VH: DVQLVESGGGLVRPGGSLKLSCAASGFTFSNYVMSWARQSPEKRLEWVAEISTGGSHTYYSDTVTGRFTISRDNAKKALYLEMSSLRSEDTAIYYCIMFYYGSSYSMDYWGQGTSVTVSS
VL: DIQMTQSTSSLSASLGDRITISCRASQDIRNYLNWYQQKPDGTVKLLIYHTSRLHSGVPSRFSGSGSGTDYSLTISNLEQEDIATYFCQQGDTLPLTFGAGTRLELK
notes: as for B1
B3: 39A11G5F2 (antibody, V domains shown)
VH: QVQLQQSGAELMKPGASMRLSCKATGYTFTGYWLEWIKRRPGHGLEWIGEILPGRGSTNYNEKFKGKATFTAETSSNTAYMQLTSLTTEDSAIYYCARGGRDFDNWGQGTTLTVSS
VL: DIQMTQSTSSLSASLGDRVTISCSASQGINNHLNWYQQKPDGTVKLLIYYTSSLHSGVPSRFSGSGSGTDYSLTISNLEPEDIAIYYCQQFSKLPYTFGGGTKVEMK
notes: as for B1
B4: 52C9E9F6 (antibody, V domains shown)
VH: QVQLQQSGAELMKPGASVKLSCKATGYTFTGYWIEWIKQRPGHGLEWIGEILPGRGSTDYNEKFKGKATFTADTSSNTAYMQLSSLTTEDSAIYYCTRGRLDFTYWGQGTLVTVSA
VL: B3 VL with S7T, N30R, H32Y, I85T, F91Y, L94V, Y96W, V104L, M106I
notes: as for B1
B5: 103E2E9C2 (antibody, V domains shown)
VH: EVQLQQSGPVLVKPGASVKMSCEASGYSFIDYYMSWVKQSRGRSLEWIGVFNPYSGEIIYNQKFKGKATLTVDKSSSTAYMELSSLTSEDSGVYSCARLRISYYAIDYWGQGTSVAVSS
VL: ENVLTQSPAIMSASPGEKVTMTCRATSSVSSGHFHWYQQKSGASPKVWIYSTSNLASGVPARFSGSGSGTSFSLTISSVEAEDVATYFCQQYSGYPLTFGGGTKLEIK
notes: as for B1
B6: 99E12C7H1 (antibody, V domains shown)
VH: QIQLVQSGPELKKPGETVKISCKPSGYTFTAYGLSWVKQAPGQGFQWMGWINTYSGVPTYTDDFKGRFAFSLETSAGTASLQITNLKNEDTATYFCARSSIPPFEYWGPGTTLTVSS
VL: SFVMTQSPKFLLVSVGDRVTITCKASQSVSNDVAWYQQKPGQPPRVLIYFASNRYTGVPDRFTGSGYGTDFTFTISTVQAEDLALYFCQQDYSSPWTFGGGTKLEIK
notes: as for B1
B7: 36A10D8B12 (antibody, V domains shown)
VH: DVQLQESGPGMVKPSQSLSLTCTVTGYSITSGYDWHWIRHFPGNKLEWMGYISYSGNTNYNPSLKSRISITHNTSKNHFFLRLNSVTTEDTATYYCARGYGNWDAMDYWGQGTSVTVSS
VL: DIVMTQSQKFMSTSVGDRVSVTCKASQIVDTNVAWYQQKPGQSPKALISSASYRYSGVPDRFTGSGSGTDFTLTISNVQSEDLAEYFCQQYNSYPLTFGAGTKLELT
notes: as for B1
B8: 106D5G3D10 (antibody, V domains shown)
VH: EVQLVESGGGLVKPGGSLKLSCAASGFTFSDYGMHWVRQAPEKGLEWVGYISSGTYVVYYADTVKGRFTISRDNAKNTLFLQMTSLRSEDTAIYYCSTYGSNPFDYWGQGTTLTVSS
VL: QLVLTQSPAIMSASPGEKVTITCSATSSVSSMHWFQQKPVTSPKLWIYSTSNLASGVPTRFSGSGSGTSYSLTISRMEAEDAATYYCQQRSGYPPIFTFGSGTKLEIK
notes: as for B1
B9: 5G4H10G5 (antibody, V domains shown)
VH: EVQLVESGGDLVQPGGSLKLFCAASGFTFSTYGLSWVRQTPDKRLELVATITNNDGSAYYPDSVKGRFTISRDKAKNTLFLQMTSLKSEDTAMYYCARETGFGSSYLFDYWGQGTLVTVSA
VL: NIVMTQTPKFLLVSAGDRVTITCKASQSVSNDVAWYQQKPGQSPKLLIYFATNRYTGVPNRFTGSGYGTEFTFTISSVQAEDLAVYFCQQDYSSPTFGGGTKLEIK
notes: as for B1

In the first assay the target is T1, human TPBG-hFc (human, UniProt Q13641 32-355).
T1 construct: also called immunogen A; hFc tagged TPBG protein; not shown: The human IgG Fc fragment of the pCpC vector (Invitrogen V044-50) and any linker to it
T1 sequence: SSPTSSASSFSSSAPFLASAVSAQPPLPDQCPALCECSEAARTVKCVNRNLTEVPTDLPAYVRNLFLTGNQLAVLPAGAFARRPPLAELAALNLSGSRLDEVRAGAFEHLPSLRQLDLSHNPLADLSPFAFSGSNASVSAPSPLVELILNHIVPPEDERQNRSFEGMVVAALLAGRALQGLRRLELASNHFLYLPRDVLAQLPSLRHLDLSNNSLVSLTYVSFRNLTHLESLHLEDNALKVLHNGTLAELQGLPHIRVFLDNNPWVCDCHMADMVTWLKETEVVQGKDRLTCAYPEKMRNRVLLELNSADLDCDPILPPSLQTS
Kind of assay: ELISA, coated human TPBG-hFc 1.0 ug/mL; antibody 20 nM. On the procedure:
(§1) The purified immunogen A (as for its method of preparation please refer to step 1 in Example 1) diluting with PBS to a final concentration of 1.0 μg/mL was aliquoted into a 96-well ELISA plate at 100 μL per well, and sealed with a parafilm and incubated at 4° C. overnight. The plate was washed twice with plate washing buffer (PBS containing 0.01% (v/v) Tween 20), and blocked with blocking buffer (PBS containing 0.01% (v/v) Tween 20 and 1% (w/w) BSA) at room temperature for 2 h. The blocking buffer was discarded, and 100 μL per well of the purified antibody obtained from Embodiment 2 was added. After incubating at 37° C. for 2 h, the plate was washed for three times with plate washing buffer (PBS containing 0.01% (v/v) Tween 20). HRP (horseradish peroxidase)-labeled secondary antibody (purchased from Sigma) was added and incubated at 37° C. for 2 h, and the plate was washed for three times using plate washing buffer (PBS containing 0.01% (v/v) Tween 20). 100 μL of TMB substrate was aliquoted into each well, incubated at room temperature for 30 min, and 100 μL of stop buffer (1.0N HCl) per well was subsequently added. A₄₅₀ₙₘ values were read using the ELISA plate reader (SpectraMax 384plus purchased from Molecular Device), and the results were shown in FIG. 6 and table 6. […] In Table 6 the IgG control herein is a mice IgG control, the data in the Table are OD₄₅₀ₘₙ values, and Blank means the OD₄₅₀ₘₙ value when there is only PBS buffer in the plate.
(In general: An ELISA detects its analyte on a solid surface through an enzyme-linked reagent.)
As for B1, the OD450nm is 2.63 OD450nm.

The molecule B2 returned an OD450nm of 2.59 OD450nm.

B3 came in with an OD450nm of 2.5 OD450nm.

Turning to B4, the OD450nm amounted to 2.69 OD450nm.

In the case of B5, the OD450nm was found to be 2.62 OD450nm.

The molecule B6 registered an OD450nm of 2.88 OD450nm.

With B7, the OD450nm was determined as 3.07 OD450nm.

Take B8: the OD450nm stood at 2.82 OD450nm.

The molecule B9 returned an OD450nm of 2.8 OD450nm.

The next assay concerns the target T1, human TPBG-hFc. Kind of assay: ELISA, coated human TPBG-hFc 1.0 ug/mL; antibody 0.2 nM. On the procedure: as §1
In turn, B1 had an OD450nm of 1.55 OD450nm.

B2 yielded an OD450nm of 1.97 OD450nm.

For the molecule B3, the OD450nm stood at 1.36 OD450nm.

Turning to B4, the OD450nm was determined as 1.39 OD450nm.

On to B5, for which the OD450nm amounted to 1.89 OD450nm.

As to B6, the OD450nm was 2.62 OD450nm.

Turning to B7, the OD450nm came to 2.15 OD450nm.

Consider B8, for which the OD450nm was 2.36 OD450nm.

B9 returned an OD450nm of 1.76 OD450nm.

In another assay the target is T2, biotinylated recombinant TPBG protein (Homo sapiens (Human), UniProt Q13641 32-355, Biotinylated; the number and positions of the biotin labels are not stated and the letters do not carry them.).
T2 sequence: T1 sequence
The assay is described as follows: competitive ELISA; row antibody 5 ug/mL; competitor: coated 28D4E6A9. On the procedure: (§2) The purified antibodies to be tested were diluted to 1 μg/mL using PBS, and coated with high-adsorption of 96-well microplates at […]. After overnight coating at 4[…], 250 μL of blocking buffer (PBS containing 0.01% (v/v) Tween20 and 1% (w/w) BSA) was added to block coating at room temperature for 1 h, and 0.05 μg/mL of biotinylated recombinant TPBG protein was added to each well. Meanwhile, 5 μg/mL final concentration of competitive antibodies, i.e. the purified antibodies obtained from Embodiment 2 with the clone number of 12B12C7C3, 5G4H10G5, 37H9C5G2, 39A11G5F2, 52C9E9F6, 28D4E6A9, 36A10D8B12, 99E12C7H1, 103E2E9C2 and 106D5G3D10 were added and incubated at 25-37° C. for 1-2 h. The plates were washed three times with plate-washing buffer (PBS containing 0.01% (v/v) Tween20) and HRP (horseradish peroxidase)-labeled streptavidin (purchased from Sigma) was added. After incubating at 37° C. for 0.5 h, the plates were washed three times with plate-washing buffer (PBS containing 0.01% (v/v) Tween20), and 100 μL of TMB substrate was added to each well and the plates were further incubated at room temperature for 30 min prior to adding 100 μL of stop buffer (1.0N HCl) to each well. A₄₅₀ₙₘ values were read using an ELISA microplate reader (SpectraMax 384plus purchased from Molecular Device) and results were shown in FIG. 6. The higher the values of the competition rate, the closer the antigen surface of the two antibodies are.
As to B1, the competition rate is 58%.

Turning to B2, the competition rate stood at 96%.

As to B3, the competition rate amounted to 0%.

On to B4, for which the competition rate stood at 17%.

Turning to B5, the competition rate is 95%.

With B6, the competition rate amounted to 38%.

As for B7, the competition rate came to 86%.

Regarding B8, the competition rate amounted to 1%.

As for B9, the competition rate was -1%.

A further assay deals with T2, biotinylated recombinant TPBG protein. The assay is described as follows: competitive ELISA; row antibody 5 ug/mL; competitor: coated 37H9C5G2. The procedure: as §2
Turning to B1, the competition rate was 96%.

In the case of B2, the competition rate is 0%.

In the case of B3, the competition rate came to 0%.

Turning to B4, the competition rate turned out to be 4%.

As to B5, the competition rate is 23%.

As to B6, the competition rate came to 5%.

As for B7, the competition rate was found to be 96%.

As to B8, the competition rate came to 3%.

B9: the competition rate is 5%.

Another assay shares this target. The assay is described as follows: competitive ELISA; row antibody 5 ug/mL; competitor: coated 52C9E9F6. The procedure:
as §2
Turning to B1, the competition rate is 5%.

Turning to B2, the competition rate was 0%.

Regarding B3, the competition rate came to 95%.

As for B4, the competition rate is 97%.

As to B5, the competition rate is 0%.

Consider B6, for which the competition rate amounted to 0%.

B7: the competition rate came to 23%.

With B8, the competition rate was found to be 0%.

B9: the competition rate is 19%.

A further assay shares this target. Kind of assay: competitive ELISA; row antibody 5 ug/mL; competitor: coated 5G4H10G5. The procedure:
as §2
Regarding B1, the competition rate turned out to be 12%.

As to B2, the competition rate was 11%.

With B3, the competition rate is 19%.

On to B4, for which the competition rate worked out at 32%.

As to B5, the competition rate was determined as 7%.

Turning to B6, the competition rate stood at 95%.

Consider B7, for which the competition rate was 17%.

B8: the competition rate is 40%.

As to B9, the competition rate was determined as 97%.

The next assay has the same target. The assay is described as follows: competitive ELISA; row antibody 5 ug/mL; competitor: coated 12B12C7C3. On the procedure: as §2
Take B1: the competition rate stood at 6%.

Turning to B2, the competition rate came to 24%.

With B3, the competition rate amounted to 9%.

With B4, the competition rate was 27%.

With B5, the competition rate was determined as 0%.

In the case of B6, the competition rate turned out to be 11%.

Turning to B7, the competition rate was 21%.

As for B8, the competition rate was 95%.

Consider B9, for which the competition rate came to 9%.
